Target: the molecule itself
Test: SEC

B1: FMNL1_(1–385) (domain or fragment, human, UniProt O95466 1-385, looked up)
chain: MGNAAGSAEQPAGPAAPPPKQPAPPKQPMPAAGELEERFNRALNCMNLPPDKVQLLSQYDNEKKWELICDQERFQVKNPPAAYIQKLKSYVDTGGVSRKVAADWMSNLGFKRRVQESTQVLRELETSLRTNHIGWVQEFLNEENRGLDVLLEYLAFAQCSVTYDMESTDNGASNSEKNKPLEQSVEDLSKGPPSSVPKSRHLTIKLTPAHSRKALRNSRIVSQKDDVHVCIMCLRAIMNYQSGFSLVMNHPACVNEIALSLNNKNPRTKALVLELLAAVCLVRGGHDIILAAFDNFKEVCGEQHRFEKLMEYFRNEDSNIDFMVACMQFINIVVHSVENMNFRVFLQYEFTHLGLDLYLERLRLTESDKLQVQIQAYLDNIFDVG
binding result: binds
